Reference: the supplement of paper PMC12764529
± gives the half width of the 95% confidence interval.

Tests used:
[1] = folding stability dG unfold from trypsin proteolysis; higher = more stable
How it was run: (§1)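 K50 was inferred by Bayesian fitting of sequencing counts obtained after protease digestion of designed mini-proteins. Unfolding free energy was derived by comparison with a sequence-predicted unfolded-state K50 and a shared folded-state K50, for each protease or both combined. The mini-proteins were under 80 residues, had no cysteine, were carried in a PA-tagged cDNA display construct, and were kept only if AlphaFold2 dimer inter-PAE exceeded 15.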

[2] = folding stability dG unfold from chymotrypsin proteolysis; higher = more stable
How it was run: as §1

[3] = folding stability dG unfold (combined trypsin and chymotrypsin); higher = more stable
How it was run: as §1

Sequence	folding stability dG unfold [1]	folding stability dG unfold [2]	folding stability dG unfold [3]
SAGMTLVAVNRETGEVNVIELDPEDPELVTVTYPNGEKETFPLAEIAERLGLPVSLLLNDYDIERIYGSSAG [r5_156_TrMRF]	1.95 ± 0.086 kcal/mol	1.38 ± 0.057 kcal/mol	1.71 ± 0.084 kcal/mol
SAGMTVSTETTTFTDPAGFETTVTTLTTTHPDGSVTSTPTTTVTAVPVPPPPAPVPVDPANPDNPALLSAGG [r19_12_JUSTAS]	0.461 ± 0.038 kcal/mol	-0.509 ± 0.095 kcal/mol	0.163 ± 0.025 kcal/mol
SAGMVATLYDPNLPPVSVGITETVTVPHPEGFTVTVTLSSDGTATVTPSDGSSTTLPDASEVRVTATPASAG [r5_869_JUSTAS]	1.31 ± 0.035 kcal/mol	0.921 ± 0.021 kcal/mol	1.1 ± 0.044 kcal/mol
SAGMVEVLEEKTDPNSDLVTVTLYAPDVPDGFRVVVYPKDGVPIEISIKRGEEVVLKLPANVEKIEFIGSAG [r14_671_JUSTAS]	2.55 ± 0.083 kcal/mol	2.41 ± 0.044 kcal/mol	2.51 ± 0.092 kcal/mol
SAGMVEVTVTIIPKKVKDKWVNEAVVSITVPGGPTSTITMPFGSKEEAIKYLKEKGLEVSEENVSVEIESAG [r5_233_JUSTAS]	2.31 ± 0.12 kcal/mol	3.395 ± 0.028 kcal/mol	3.23 ± 0.097 kcal/mol
SAGMVIELKTEEEAKAKAEEIAKKNPEANVTLVVTDPETGVKTVIPVKIESPKPKPEFDKKNGKYKDKGSAG [r5_870_JUSTAS]	-0.126 ± 0.2 kcal/mol	-0.455 ± 0.45 kcal/mol	-0.0134 ± 0.35 kcal/mol
SAGMVIKVKVKNKDGEELELVIEIPEEELPEELTEEELKELAKKLAEELAKEGKVEVVEVEIVEPEELSAGG [r19_27_TrROS_Hall]	2.39 ± 0.26 kcal/mol	1.8 ± 0.13 kcal/mol	2.03 ± 0.25 kcal/mol
SAGMVIPILLKPEPERPEEVEKKAIEFANKLKPLNLPNVKIKVYRAPYVDPETGKTTVLYLVLIEVEPPSAG [r5_49_TrMRF]	1.83 ± 0.1 kcal/mol	2.79 ± 0.13 kcal/mol	2.4 ± 0.19 kcal/mol
SAGMVITVPSDVPVEELLELARELARELGGGRVEVRTHPDNPEIVTATIDIPGTGKRILIINAPPGVLASAG [r5_912_TrMRF]	2.66 ± 0.038 kcal/mol	2.37 ± 0.028 kcal/mol	2.52 ± 0.048 kcal/mol
SAGMVIVDPKTKKKITFDKESGEIYIEVDGKKKKIKLKPGEKVEIEIIEKDGKLIIKIKANGKIIEIEPSAG [r5_858_TrROS_Hall]	1.56 ± 0.17 kcal/mol	2.09 ± 0.12 kcal/mol	1.75 ± 0.2 kcal/mol
SAGMVKAKLKVIPVTVDGKPKLYVKVELEIPGGPKFELVFETGSPEKAKELLEKLGLKVKDEDIEIEESSAG [r5_233_TrMRF]	2.83 ± 0.11 kcal/mol	3.69 ± 0.14 kcal/mol	3.34 ± 0.18 kcal/mol
SAGMVKITVPSSVGPVDPSKALTFEKDDTRYILVPGEVAKEIEEKYPDLPIEIEPMSEEEAEKILKELSAGG [r19_271_JUSTAS]	-0.0536 ± 0.2 kcal/mol	0.624 ± 0.16 kcal/mol	0.258 ± 0.41 kcal/mol
SAGMVLEYEGVDEEEKLLARAEELRAELRARHPRVRVELEVEVKPTPGNKYRYRVTLTIEPLAPDEARASAG [r5_936_JUSTAS]	1.75 ± 0.11 kcal/mol	2.09 ± 0.11 kcal/mol	1.99 ± 0.15 kcal/mol
SAGMVRIETYTHPDGTLRLVVYRPETGERAVFEFPLEDPEKFREAVEELAERLREEGFPVEVDIRPTLPSAG [r5_815_TrMRF]	3 ± 0.086 kcal/mol	4.296 ± 0.023 kcal/mol	3.97 ± 0.049 kcal/mol
SAGMVTLRVKLKDGRELEIQLASEEEIESLPPGAKVIPIPAESEEEALEAAARLLAEEEGLEIEEVEKVSAG [r5_119_TrROS_Hall]	0.671 ± 0.022 kcal/mol	0.564 ± 0.074 kcal/mol	0.638 ± 0.049 kcal/mol
SAGMYLVKITVTNEDGEKKEITVLVEAETEEEAREAAEELARELAEKYPEKIVEVKVEVVKLPPEVEPSAGG [r19_335_TrROS_Hall]	4.12 ± 0.19 kcal/mol	4.77 ± 0.16 kcal/mol	4.98 ± 0.66 kcal/mol
SAGMYTITISRLPGGEYEVRVTDAANGEEVARRPVASEEEARAEAERIAAEIAEADPDVEVRVSESDAESAG [r5_383_JUSTAS]	2.51 ± 0.066 kcal/mol	2.959 ± 0.023 kcal/mol	2.83 ± 0.04 kcal/mol
